Assay results reported in patent US8809529B2, “Imidazo[1,2-α]pyrazine derivatives” (Promega Corporation, priority 2010, dated 2014).
Like-named read-outs stand apart in the source and are kept apart here.

Experiments:
HEK293 cells [1] = test: Toxicity of coelenterazines in HEK293 cells (CELLTITER-GLO); settings: 24 hrs after compound addition
[2] = Stability of coelenterazines in reporter reagent buffer (T90); settings: time for luminescent signal to decay by 10% at 22° C.; read with OgLuc variant IV lysate
HEK293 cells [3] = settings: human, 24 h
L27V02 enzyme = molecular target: T1, L27V02 enzyme (Oplophorus gracilirostris, UniProt Q9GV45, A31E/A60N/A81I/F95D/I117V/K70R/L54V/L99Q/M102K/N193R/P142E/Q151K/Q38R/Q45L/V71I/Y165I); test: Luminescence of compounds with purified L27V02 enzyme; assay type: biochemical; settings: 20 μM compound, 36 pM L27V02, pH 7, 3 min
T1 construct: The N-terminus of the OgLuc variant L27V is methionine, valine and phenylalanine, i.e., MVF; made in house
Procedure: Compounds PBI-4525, PBI-4540 and PBI-4541 were screened for their ability to detect luminescence. […] The assay reagent was then mixed with 36 pM purified L27V02 enzyme (described in Example 25B), in DMEM without Phenol Red and 0.1% PRIONEX®. As a control, assay buffer with 20 μM PBI-3939 or PBI-4528 was used. Luminescence was measured as previously described 3 min after the assay reagent was added to the enzyme mixture.

[4] = Brightness and relative specificity of 9B8 and 9B8 opt+K33N variants in E. coli lysates; assay type: biochemical
Procedure: Additional variants with improved relative specificity to novel PBI-3939 were generated as described previously by saturating amino acid positions 18, 68, 72, 75, and 90 in variant 9B8. […] Relative specificity was determined from the ratio of the luminescence of the variant with PBI-3939 to the luminescence of the variant with native coelenterazine, normalized to the ratio of corresponding luminescence of 9B8. Table 8 lists 9B8 variants (“Variant”) with at least 1.1× fold-increase in relative specificity for PBI-3939. […] 9B8 variants with amino acid substitutions K, D, F, G, Y, W, and H at position 18 had the highest fold improvement in relative specificity.
A new OgLuc library was created using 9B8opt+K33N as a starting template. The random library was created using DIVERSIFY® PCR Random Mutagenesis Kit (ClonTech; Catalog #630703). Condition 5 (as listed in the user manual) was used to generate additional variants, and the average mutation rate was calculated to be 2.6 mutations per gene by compiling sequence data from 83 randomly selected clones. This PCR library was cloned into the pF4Ag-based, non-fusion vector background described previously and the sandwich background, i.e., Id-OgLuc-HT7 (described in Example 45). Variants in the pF4Ag-base non-fusion vector background are designated with (NF). Variants in the sandwich vector background are designated with (F). In order to clone the PCR product into both vectors, an amino acid, i.e., a glycine, was appended to the variant sequence in pF4Ag, generating a new position 170 in the OgLuc variant (“170G”). The 170G is present in the sandwich construct, but in this case is considered part of the linker between OgLuc and HT7. For each library, 4,400 E. coli clones were assayed as described previously with the following exceptions. […] The assay buffer contained 100 mM MES pH 6.0 instead of HEPES, and 35 mM thiourea. The assay volumes were as follows: 10 μL cells, 40 μL lysis buffer, and 50 μL assay buffer.
(§1) Based on the above data, further combination variants were designed and generated (see Table 10) in the context of the pF4Ag-based non-fusion vector background without the 170G. The variants were analyzed in E. coli, HEK293 and NIH3T3 cells as described above and compared to 9B8 opt+K33N. The variants were also examined for luminescence with native coelenterazine.
E. coli lysates containing the variants were prepared and analyzed as described previously. Luminescence generated from the lysates was measured using the novel PBI-3939 and native coelenterazine as substrates. The luminescence of the variants was normalized to the luminescence generated by 9B8 opt (Table 12). The relative specificity of the variants for PBI-3939 and native coelenterazine was calculated by dividing the luminescence of the variants using PBI-3939 as a substrate with the luminescence of the variants using native coelenterazine as a substrate (Table 12).

[5] = Luminescence of OgLuc variants expressed in HEK293 cells; assay type: cell-based, human
Procedure: (§2) The PCR library in the pF4Ag-based non-fusion background was screened for additional variants with increased luminescence compared to 9B8 opt+K33N+170G (SEQ ID NOs: 68 and 69). Selected variants were then assayed in HEK293 and NIH3T3 cells. For each cell type, 15,000 cells were plated and grown overnight at 37° C. The next day, the cells were transfected as described in Example 25 with 10 ng pGL4.13 (Promega Corp.) as a transfection control and 100 ng of the OgLuc test DNA. The media was removed, and the cells were lysed with 100 μL of lysis buffer as described in Example 25 except the lysis buffer contained 100 mM MES pH 6.0 instead of HEPES, and luminescence measured using a GLOMAX® Luminometer.
as §1
(§3) The brightness of the variants expressed in HEK293 and NIH3T3 cells was measured as described previously. The luminescence of the variants was normalized to the luminescence generated by 9B8 opt (Table 27).
(§4) The variants 9B8 opt+K33N+T39T+K43R+Y68D (“V2”; SEQ ID NOs: 92 and 93), 9B8 opt+K33N+L27V+K43R+Y68D (SEQ ID NOs: 339 and 340), 9B8 opt+K33N+L27V+T39T+K43R+S66N (SEQ ID NOs: 341 and 342), and 9B8 opt+K33N+L27V+T39T+K43R+Y68D (“L27V”; SEQ ID NOs: 88 and 89) were subcloned into the Id-OgLuc-HT7 sandwich background as described above and assayed in HEK293 and NIH3T3 cells as described above. The luminescence generated by the sandwiched variants were compared to the luminescence generated by the […] sandwich (SEQ ID NOs: 59 and 60) (Table 38). The L27V sandwich (SEQ ID NOs: 90 and 91) and V2 sandwich (SEQ ID NOs: 94 and 95) had at least 1.3× fold-increase in luminescence in HEK293 and NIH3T3 cells.
(§5) The sandwich and non-sandwich versions of the variants V2, 9B8 opt+K33N+L27V+K43R+Y68D, 9B8 opt+K33N+L27V+T39T+K43R+S66N, and L27V were assayed in HEK293 and NIH3T3 cells as described in Example 37. The luminescence generated by the non-sandwiched variants was compared to the luminescence generated by the sandwiched variants (Table 39).

[6] = Luminescence of OgLuc variants expressed in NIH3T3 cells; assay type: cell-based
Procedure: as §2, §1, §3, §4, §5

[7] = assay type: biochemical, E. coli
Procedure: The signal stability of 15C1 with PBI-3945 and 9B8 with PBI-3889 was measured and compared to IV. E. coli containing plasmid DNA encoding 15C1, 9B8, or IV were grown and induced as described previously in 8-well replicates. Cells were lysed using a lysis buffer containing of 300 mM HEPES pH 8.0, 0.3× Passive Lysis Buffer (“PLB”; Promega Corp. Cat. No. E194A), 0.3 mg/mL lysozyme, and 0.003 U/μL RQ1 DNase. Lysates were diluted 1:1000 in lysis buffer and measured for luminescence using a TECAN® INFINITE® F500 luminometer. Measurements were taken immediately after the addition to 10 μL of diluted lysate sample of 50 μL of “Glo” 0.5% TERGITOL assay buffer (“0.5% TERGITOL”), which contained 150 mM KCl, 1 mM CDTA, 10 mM DTT, 100 mM thiourea, 0.5% TERGITOL® NP-9 (v/v), and 20 μM of either novel coelenterazines PBI-3945 or PBI 3889.
The signal stability of the variants was determined by re-reading the plate every 30 seconds for a length of time after the addition of the assay buffer to the sample. The signal half-life was determined from these measurements using methods known in the art. The average signal half-life was compared between the variants and IV. […] At t=10 min, luminescence for 15C1 with PBI-3945 and 9B8 with PBI-3889 were equivalent.
E. coli lysates containing the variants were prepared and analyzed as described previously except the assay buffer contained 0.25% TERGITOL® NP-9 (v/v), 100 mM MES pH 6.0, 1 mM CDTA, 150 mM KCl, 35 mM thiourea, 2 mM DTT, and 20 μM PBI-3939.

[8] = Enzyme kinetics of OgLuc variants (Km, Vmax); assay type: biochemical, E. coli; settings: PBI-3939, average of three replicates
Procedure: Using methods known in the art, enzyme kinetic assays measuring luminescence were performed with the lysates of E. coli containing N and the IV variants 15C1, 9B8, 9F6, and 9A3. […] Two fold serial dilutions of PBI-3939 in the assay buffer described previously in Example 26 were assayed with the diluted lysates. […] Variants 9B8 and 9F6 had higher Km values compared to IV while Km values for the other variants were unchanged.
Luminescence was measured on a TECAN® INFINITE® F500 luminometer.
The enzyme kinetics values were determined for the OgLuc variants as described previously, except luminescence was measured using a GLOMAX® luminometer. Three replicates were used for each variant.

[9] = assay type: physicochemical, E. coli; settings: 60° C., assay buffer 100 mM MES pH 6.0
Procedure: Aliquots were removed at different time-points and placed on dry ice to freeze the samples. […] Luminescence was measured on a GLOMAX® luminometer (Promega Corp.).
The thermal stability of the variants at 60° C. was examined as described above, except the assay buffer contained 100 mM MES pH 6.0 instead of HEPES.

[10] = relative specificity for PBI-3939

O=c1c(Cc2ccccc2)nc2c(Cc3ccccc3)[nH]c(-c3ccccc3)cn1-2 [Coelenterazine hh, bis-deoxycoelenterazine, reference compound]
Viability (normalized to vehicle (DMSO) control) (%) (HEK293 cells [1]): 87% | Stability (pH 8) (T90 in hrs) [2]: 2.0 hrs

Oc1ccc(Cc2nc3c(Cc4ccccc4)nc(-c4ccc(O)cc4)cn3c2O)cc1 [Native coelenterazine, coelenterazine, reference compound]
Stability (pH 8) (T90 in hrs): 1.7 hrs | Viability (normalized to vehicle (DMSO) control) (%) (HEK293 cells [3]): 100%

O=c1c(Cc2cccs2)nc2c(Cc3ccccc3)[nH]c(-c3ccccc3)cn1-2 [PBI-3889, 8-benzyl-6-phenyl-2-(thiophen-2-ylmethyl)imidazo[1,2-a]pyrazin-3(7H)-one]
Stability (pH 8) (T90 in hrs): 2.9 hrs | Viability (normalized to vehicle (DMSO) control) (%) (HEK293 cells [3]): 90%

Cc1[nH]c(-c2ccccc2)cn2c(=O)c(Cc3ccc(O)cc3)nc1-2 [PBI-3896, 2-(4-hydroxybenzyl)-8-methyl-6-phenylimidazo[1,2-a]pyrazin-3(7H)-one]
Stability (pH 8) (T90 in hrs): 2.8 hrs

O=c1c(Cc2ccco2)nc2c(Cc3ccccc3)[nH]c(-c3ccc(O)cc3)cn1-2 [PBI-3945]
Viability (normalized to vehicle (DMSO) control) (%) (HEK293 cells [1]): 100% | Stability (pH 8) (T90 in hrs) [2]: 3.3 hrs

O=c1c(Cc2cccs2)nc2c(Cc3ccccc3)[nH]c(-c3ccc(O)cc3)cn1-2 [PBI-4002]
Viability (normalized to vehicle (DMSO) control) (%) (HEK293 cells [1]): 100% | Stability (pH 8) (T90 in hrs) [2]: 3.5 hrs

Cn1ccnc1Cc1nc2c(Cc3ccccc3)[nH]c(-c3ccccc3)cn-2c1=O [PBI-4525, 8-benzyl-2-((1-methyl-1H-imidazol-2-yl)methyl)-6-phenylimidazo[1,2-a]pyrazin-3(7H)-one]
RLU (L27V02 enzyme): 20,655 RLU

Cn1ccnc1CC1=NC2=C(Cc3ccccc3)NC(c3ccccc3)(c3ccc(O)cc3)CN2C1=O (stereo not shown) [PBI-4540, 8-benzyl-6-(4-hydroxyphenyl)-2-((1-methyl-1H-imidazol-2-yl)methyl)-6-phenylimidazo[1,2-a]pyrazin-3(7H)-one]
RLU (L27V02 enzyme): 909 RLU

O=c1c(Cc2ncc[nH]2)nc2c(Cc3ccccc3)[nH]c(-c3ccccc3)cn1-2 [PBI-4541, 2-((1H-imidazol-2-yl)methyl)-8-benzyl-6-phenylimidazo[1,2-a]pyrazin-3(7H)-one]
RLU (L27V02 enzyme): 5,676 RLU

B1: L27V, K43R, Y68D: 9B8 opt+K33N+L27V+K43R+Y68D (protein)
chain: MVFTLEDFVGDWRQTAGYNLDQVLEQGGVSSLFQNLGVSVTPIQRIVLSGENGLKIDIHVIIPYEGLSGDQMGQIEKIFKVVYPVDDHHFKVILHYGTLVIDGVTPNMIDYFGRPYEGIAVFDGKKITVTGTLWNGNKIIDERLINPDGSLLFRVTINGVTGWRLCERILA
Fold over coelenterazine ([4]; bacterial lysates, PBI-3939 luminescence divided by native coelenterazine luminescence): 110 | Fold over 9B8 ([4]; bacterial lysates, luminescence normalized to 9B8 opt): 1.3 | fold-increase in relative specificity over 9B8 opt+K33N ([4]; in the three cell types examined): 5 × | Fold over 9B8 opt + K33N: E. coli ([4]; luminescence, PBI-3939): 1.2 | Fold over Native Coelenterazine: E. coli [4, 10]: 98.3 | Fold-Decrease in Luminescence in the Presence of Sandwich Background: HEK 293 [5]: 8 | Fold over 9B8 opt + K33N: HEK293 ([5]; luminescence, PBI-3939): 0.9 | Increase in Luminescence: HEK293 ([5]; normalized to 9B8 opt): 1.6 | Fold over Native Coelenterazine: HEK293 [5, 10]: 101 | Fold-Decrease in Luminescence in the Presence of Sandwich Background: NIH 3T3 cells [6]: 22 | Fold over 9B8 opt + K33N: NIH3T3 ([6]; luminescence, PBI-3939): 0.8 | Increase in Luminescence: NIH3T3 ([6]; normalized to 9B8 opt): 1.5 | Fold over Native Coelenterazine: NIH3T3 [6, 10]: 98 | signal half life [7]: 2.03 h | Km [8]: 13.7 µM | Vmax [8]: 130,000,000 RLU/0.5 sec | ½ life hours [9]: 23.2 h
